In doi:10.1101/2025.05.08.652848 (bioRxiv, 2025):
*: point of attachment. Biotin = O=C1N[C@H]2[C@H](CS[C@H]2CCCCC(=O)*)N1

How the values were obtained:
[1] = molecular target: His-PPARG LBD (human PPARG ligand-binding domain, residues 231 to 505), wild type (human) (UniProt P37231); assay: AlphaScreen or HTRF
[2] = molecular target: N-terminal Avi-tagged PPARG LBD, unmodified (DMSO) (human); assay: SPR
[3] = molecular target: N-terminal Avi-tagged PPARG LBD, FTX-6746-modified (human); assay: SPR
[4] = molecular target: T1, RXRA^WT:PPARG LBD heterodimer (human, UniProt P37231;P19793); assay: AlphaScreen or HTRF
T1 sequence 1: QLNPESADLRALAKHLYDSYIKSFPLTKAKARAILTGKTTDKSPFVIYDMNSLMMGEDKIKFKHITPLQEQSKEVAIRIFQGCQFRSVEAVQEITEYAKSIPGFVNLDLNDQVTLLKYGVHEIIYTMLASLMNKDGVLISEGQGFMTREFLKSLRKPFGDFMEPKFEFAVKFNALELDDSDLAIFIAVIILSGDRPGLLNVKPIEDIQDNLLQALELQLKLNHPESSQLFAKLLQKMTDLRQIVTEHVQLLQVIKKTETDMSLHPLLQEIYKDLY
T1 sequence 2: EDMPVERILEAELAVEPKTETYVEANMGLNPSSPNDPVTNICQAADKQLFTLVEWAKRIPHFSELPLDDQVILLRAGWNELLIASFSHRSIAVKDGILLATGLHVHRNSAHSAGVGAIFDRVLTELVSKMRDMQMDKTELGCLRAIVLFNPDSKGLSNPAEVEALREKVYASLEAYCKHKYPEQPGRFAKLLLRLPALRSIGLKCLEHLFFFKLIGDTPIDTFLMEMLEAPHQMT

biotinylated MED1 LxxLL peptide
Kd [1]: > 2500 nM

B1: biotinylated MED1 LxxLL peptide (peptide)
peptide: Biotin-VSSMAGNTKNHPMLMNLLKDNPAQ-NH2
SMILES: CSCC[C@H](NC(=O)[C@H](CO)NC(=O)[C@H](CO)NC(=O)[C@@H](NC(=O)CCCC[C@@H]1SC[C@@H]2NC(=O)N[C@@H]21)C(C)C)C(=O)N[C@@H](C)C(=O)NCC(=O)N[C@@H](CC(N)=O)C(=O)N[C@H](C(=O)N[C@@H](CCCCN)C(=O)N[C@@H](CC(N)=O)C(=O)N[C@@H](Cc1c[nH]cn1)C(=O)N1CCC[C@H]1C(=O)N[C@@H](CCSC)C(=O)N[C@@H](CC(C)C)C(=O)N[C@@H](CCSC)C(=O)N[C@@H](CC(N)=O)C(=O)N[C@@H](CC(C)C)C(=O)N[C@@H](CC(C)C)C(=O)N[C@@H](CCCCN)C(=O)N[C@@H](CC(=O)O)C(=O)N[C@@H](CC(N)=O)C(=O)N1CCC[C@H]1C(=O)N[C@@H](C)C(=O)N[C@@H](CCC(N)=O)C(N)=O)[C@@H](C)O
fraction of PPARG capable of binding CoA [2]: 82% | fraction of PPARG capable of binding CoA [3]: 34% | Kd [4]: 270 nM | binding result [4]: binds

B2: biotinylated NCOR1 ID2 peptide (peptide)
peptide: Biotin-GHSFADPASNLGLEDIIRKALMG-NH2
SMILES: CC[C@H](C)[C@H](NC(=O)[C@H](CC(=O)O)NC(=O)[C@H](CCC(=O)O)NC(=O)[C@H](CC(C)C)NC(=O)CNC(=O)[C@H](CC(C)C)NC(=O)[C@H](CC(N)=O)NC(=O)[C@H](CO)NC(=O)[C@H](C)NC(=O)[C@@H]1CCCN1C(=O)[C@H](CC(=O)O)NC(=O)[C@H](C)NC(=O)[C@H](Cc1ccccc1)NC(=O)[C@H](CO)NC(=O)[C@H](Cc1c[nH]cn1)NC(=O)CNC(=O)CCCC[C@@H]1SC[C@@H]2NC(=O)N[C@@H]21)C(=O)N[C@H](C(=O)N[C@@H](CCCNC(=N)N)C(=O)N[C@@H](CCCCN)C(=O)N[C@@H](C)C(=O)N[C@@H](CC(C)C)C(=O)N[C@@H](CCSC)C(=O)NCC(N)=O)[C@@H](C)CC
binding result [4]: binds
